{"source": "paper PMC11330416", "key": {"[1]": {"target": "NRC SARS-CoV-2 (reference strain) spike protein reference material SMT1-1 (SARS-CoV-2 (reference strain, Wuhan-Hu-1))", "experiment": "SEC-MALS; Waters BEH SEC 4.6 x 150 mm column (200 A for ACE2-1, 450 A for OMIC-1), DPBS with 0.02% Tween-20, pH 7.4, 0.4 mL/min; UV at 280 nm, MALS and RI detection; relative amounts of species from SEC-UV"}, "[2]": {"target": "biotinylated human angiotensin-converting enzyme 2 reference material ACE2-1 (human) (UniProt Q9BYF1)", "sequence (Q9BYF1 20-614)": "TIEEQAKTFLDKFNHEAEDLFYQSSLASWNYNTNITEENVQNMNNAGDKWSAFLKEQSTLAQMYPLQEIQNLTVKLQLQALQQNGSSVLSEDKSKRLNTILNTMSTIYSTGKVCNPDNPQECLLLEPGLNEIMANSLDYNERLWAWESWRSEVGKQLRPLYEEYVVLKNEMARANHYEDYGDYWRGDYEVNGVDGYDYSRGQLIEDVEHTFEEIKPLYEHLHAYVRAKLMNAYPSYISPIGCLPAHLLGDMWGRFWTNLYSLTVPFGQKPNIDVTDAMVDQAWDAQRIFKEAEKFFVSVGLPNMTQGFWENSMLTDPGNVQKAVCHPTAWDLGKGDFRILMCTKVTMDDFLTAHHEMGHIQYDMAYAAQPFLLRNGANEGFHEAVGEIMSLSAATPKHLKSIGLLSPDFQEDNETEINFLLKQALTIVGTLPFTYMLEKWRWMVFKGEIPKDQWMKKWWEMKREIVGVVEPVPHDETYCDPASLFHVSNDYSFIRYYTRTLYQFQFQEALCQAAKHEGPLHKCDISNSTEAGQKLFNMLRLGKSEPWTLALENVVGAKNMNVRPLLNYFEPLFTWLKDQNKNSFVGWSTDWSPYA", "experiment": "SPR; ACE2-1 immobilised by its biotin on streptavidin on a biotin-coated Au chip (250-300 RU), blocked with 10 uM BSA; spike analyte in a twofold series of 12.5-200 nM at 50 uL/min, about 90 s association, 30-45 min dissociation; 10 mM HEPES pH 7-7.4, 150 mM NaCl, 3 mM EDTA, 0.05% Tween-20; 1:1 binding model; averages of two independent experiments"}}}
{"substance": "NRC SARS-CoV-2 (reference strain) spike protein reference material SMT1-1", "values": [{"measurement": "stoichiometry N", "setting": "[1]", "value": 3}, {"measurement": "Kd", "setting": "[2]", "value": 17.1, "unit": "nM"}, {"measurement": "koff", "setting": "[2]", "value": 0.0018, "unit": "s⁻¹"}, {"measurement": "kon", "setting": "[2]", "value": 110000, "unit": "M⁻¹ s⁻¹"}]}
